# Measured values: publication PMC8748874, “Structures of the human peroxisomal fatty acid transporter ABCD1 in a lipid environment” (Communications Biology, 2022)
# Test system: T1, Nc1ncnc2c1ncn2[C@@H]1O[C@H](COP(=O)(O)OP(=O)(O)OP(=O)(O)O)[C@@H](O)[C@H]1O
# T1 construct: full length, codon-optimized synthetic gene; C-terminal eYFP-Rho1D4 tag cut off with 3C protease; HEK293 Flp-In TREX; homodimer; in DDM/CHS, liposomes or MSP1D1 nanodiscs
# Test: molybdate-based colorimetric ATPase assay
# Format: biochemical, Homo sapiens
# Conditions: BPL/Chol liposomes and nanodiscs, 10 mM MgCl2, pH 7.5, 37 °C, ATP 0.0625 to 8 mM
substance,measurement,value
ABCD1 (ALDP) (Homo sapiens),Km,about 0.3 mM
